What all share (assay): holdup assay
Holding throughout (design): key: below the threshold = too weak to quantify, mostly under pKd 3.1 to 4
Common to all, as to settings: plain residues with an end cap or a label only (N-terminal biotin on a linker: ado-ado)

Assay [1] has as its target T1, ARHGEF11, O15085.
T1 sequence (O15085 42-136, limits assumed, looked up): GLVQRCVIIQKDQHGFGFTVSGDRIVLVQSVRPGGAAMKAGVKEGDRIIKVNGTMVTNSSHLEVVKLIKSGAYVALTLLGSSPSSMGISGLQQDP

The target in assay [2] is T2, MPDZ_5, O75970.
T2 sequence (O75970 695-796, limits assumed, looked up): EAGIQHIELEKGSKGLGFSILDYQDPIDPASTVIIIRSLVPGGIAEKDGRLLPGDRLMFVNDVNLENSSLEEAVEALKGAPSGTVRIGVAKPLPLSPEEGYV

Assay [3] deals with HTRA1, Q92743.
Assay [4] has as its target T3, DLG3_1, Q92796.
T3 sequence (Q92796 125-227, limits assumed, looked up): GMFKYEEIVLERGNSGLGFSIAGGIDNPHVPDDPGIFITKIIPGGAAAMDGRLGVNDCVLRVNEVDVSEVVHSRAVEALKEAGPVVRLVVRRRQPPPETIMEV

For assay [5], the target named is NOS1, P29475.
The target of assay [6] is IL16_3, Q14005.
In assay [7] the target is NHERF4_2, Q86UT5.
For assay [8], the target named is T4, NHERF3_4, Q5T2W1.
T4 sequence (Q5T2W1 373-468, limits assumed, looked up): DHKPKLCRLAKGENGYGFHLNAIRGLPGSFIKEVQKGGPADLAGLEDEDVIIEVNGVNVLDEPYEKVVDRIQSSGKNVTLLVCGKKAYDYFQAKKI

Assay [9] has as its target T5, LRRC7, Q96NW7.
T5 sequence (Q96NW7 1440-1537, limits assumed, looked up): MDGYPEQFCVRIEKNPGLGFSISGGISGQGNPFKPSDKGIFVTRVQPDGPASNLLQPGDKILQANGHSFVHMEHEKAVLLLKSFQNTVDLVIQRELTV

The target of assay [10] is MAST1, Q9Y2H9.
Assay [11] has as its target T6, TX1BP3, O14907.
T6 sequence (O14907 10-122, limits assumed, looked up): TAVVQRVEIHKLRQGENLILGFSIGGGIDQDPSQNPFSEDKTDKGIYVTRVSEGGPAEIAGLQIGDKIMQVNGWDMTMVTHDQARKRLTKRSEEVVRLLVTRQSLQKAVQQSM

Assay [12] concerns the target T7, PDZRN3_1, Q9UPQ7.
T7 sequence (Q9UPQ7 244-349, limits assumed, looked up): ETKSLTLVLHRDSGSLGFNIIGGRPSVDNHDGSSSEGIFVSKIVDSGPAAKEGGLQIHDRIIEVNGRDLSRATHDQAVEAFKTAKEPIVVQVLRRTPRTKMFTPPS

Assay [13] concerns the target PTPN3, P26045.
In assay [14] the target is T8, APBA3_1, O96018.
T8 sequence (O96018 389-490, limits assumed, looked up): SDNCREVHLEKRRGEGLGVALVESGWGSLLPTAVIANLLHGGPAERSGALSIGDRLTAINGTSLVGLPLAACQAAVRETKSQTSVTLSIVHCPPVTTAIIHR

The target of assay [15] is MAGI2_5, Q86UL8.
Assay [16] concerns the target T9, MPDZ_10, O75970.
T9 sequence (O75970 1624-1722, limits assumed, looked up): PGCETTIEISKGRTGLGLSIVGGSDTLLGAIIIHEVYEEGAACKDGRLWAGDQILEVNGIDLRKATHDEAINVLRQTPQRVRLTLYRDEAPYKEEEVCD

The target in assay [17] is T10, LIN7A, O14910.
T10 sequence (O14910 103-200, limits assumed, looked up): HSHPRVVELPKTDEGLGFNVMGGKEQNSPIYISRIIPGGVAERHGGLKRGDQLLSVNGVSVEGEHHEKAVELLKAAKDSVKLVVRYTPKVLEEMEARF

Assay [18] has as its target PICK1, Q9NRD5.
Assay [19] deals with T11, MPDZ_12, O75970.
T11 sequence (O75970 1857-1958, limits assumed, looked up): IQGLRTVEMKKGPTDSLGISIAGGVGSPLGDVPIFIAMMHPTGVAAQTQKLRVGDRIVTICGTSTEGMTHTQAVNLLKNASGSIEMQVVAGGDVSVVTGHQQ

The target in assay [20] is DLG1_3, Q12959.
The target in assay [21] is AHNAK1, Q09666.
Assay [22] concerns the target T12, DFNB31_3, Q9P202.
T12 sequence (Q9P202 811-907, limits assumed, looked up): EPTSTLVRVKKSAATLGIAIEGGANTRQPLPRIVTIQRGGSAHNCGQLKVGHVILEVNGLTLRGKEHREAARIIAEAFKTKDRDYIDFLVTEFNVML

Assay [23] deals with TJP1_2, Q07157.
For assay [24], the target named is DLG2_3, Q15700.

Sequence of MAST1, Q9Y2H9 (Q9Y2H9 962-1065): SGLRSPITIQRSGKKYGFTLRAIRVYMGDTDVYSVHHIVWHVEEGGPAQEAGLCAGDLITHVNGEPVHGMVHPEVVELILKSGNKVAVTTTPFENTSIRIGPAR
Sequence of NHERF4_2, Q86UT5 (Q86UT5 220-308): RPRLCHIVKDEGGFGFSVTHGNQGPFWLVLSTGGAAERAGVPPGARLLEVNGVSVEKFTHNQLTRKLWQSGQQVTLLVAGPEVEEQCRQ
Sequence of DLG1_3, Q12959 (Q12959 457-571): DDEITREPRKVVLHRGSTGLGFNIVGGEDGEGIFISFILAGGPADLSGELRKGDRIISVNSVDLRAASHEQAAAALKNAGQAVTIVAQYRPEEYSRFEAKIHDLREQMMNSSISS
Sequence of AHNAK1, Q09666 (Q09666 4-100): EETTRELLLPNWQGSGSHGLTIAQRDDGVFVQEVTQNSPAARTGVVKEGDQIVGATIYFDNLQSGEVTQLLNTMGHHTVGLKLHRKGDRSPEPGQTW
Sequence of PICK1, Q9NRD5 (Q9NRD5 17-115): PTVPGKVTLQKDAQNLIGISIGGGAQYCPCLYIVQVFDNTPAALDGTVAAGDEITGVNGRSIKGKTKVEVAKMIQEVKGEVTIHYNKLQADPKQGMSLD
Sequence of IL16_3, Q14005 (Q14005 1107-1207): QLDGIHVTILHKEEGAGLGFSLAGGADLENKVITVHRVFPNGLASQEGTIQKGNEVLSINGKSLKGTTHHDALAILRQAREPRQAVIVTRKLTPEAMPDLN
Sequence of PTPN3, P26045 (P26045 505-587): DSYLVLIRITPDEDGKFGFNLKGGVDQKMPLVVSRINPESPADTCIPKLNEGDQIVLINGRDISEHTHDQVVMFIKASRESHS
Sequence of NOS1, P29475 (P29475 9-101): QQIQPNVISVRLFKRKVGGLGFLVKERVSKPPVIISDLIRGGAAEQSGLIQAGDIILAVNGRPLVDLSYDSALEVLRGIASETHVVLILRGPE
Sequence of MAGI2_5, Q86UL8 (Q86UL8 915-1017): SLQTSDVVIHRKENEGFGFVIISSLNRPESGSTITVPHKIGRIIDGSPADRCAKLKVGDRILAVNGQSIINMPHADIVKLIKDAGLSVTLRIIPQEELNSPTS
Sequence of TJP1_2, Q07157 (Q07157 181-274): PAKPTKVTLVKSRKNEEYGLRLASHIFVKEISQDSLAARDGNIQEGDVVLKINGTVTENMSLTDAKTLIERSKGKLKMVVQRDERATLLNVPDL
Sequence of HTRA1, Q92743 (Q92743 360-477): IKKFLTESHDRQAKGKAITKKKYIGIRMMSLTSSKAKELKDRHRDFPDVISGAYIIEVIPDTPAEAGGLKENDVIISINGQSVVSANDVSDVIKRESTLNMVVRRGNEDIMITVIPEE

With NSTHNLKDYV [CLDN20, P56880], the pKd entry in assay [1] was “below the threshold”; in assay [2], “below the threshold”; in assay [3], 3.64; in assay [4], “below the threshold”; in assay [5], 3.58; in assay [6], “below the threshold”. For the same molecule, the pKd entry in assay [7] is “below the threshold”; in [8] it was “below the threshold”; in assay [9] it was “below the threshold”; in assay [10], 3.65; in [11] it was “below the threshold”; in assay [12], 3.83. The negative-log Kd (pKd) entry in assay [13], in assay [14], in [15], in [16], in assay [17] and in assay [18] was “below the threshold” each time. For the same molecule, the pKd entry in [19], in [20], in assay [21], in assay [22], in assay [23] and in assay [24] was “below the threshold” each time.
Consider TKEIPNCTSV [SORCS3, Q9UPU3], for which the pKd in assay [1] was 4.82; in assay [2], “below the threshold”; in [3] it was 3.82; in [4] it was 3.64; in assay [5], 3.57; in assay [6], “below the threshold”. Moreover, the pKd in assay [7] is 3.49; in assay [8] it was “below the threshold”; in assay [9], “below the threshold”; in [10], 4.99; in [11] it was 4.47; in assay [12] it was 3.92. Besides, the negative logarithm of the Kd (pKd) in [13] was 4.74; in assay [14] it was “below the threshold”; in [15], 3.99; in assay [16], 3.83; in assay [17], “below the threshold”; in assay [18], 4.17. Moreover, the pKd in assay [19] is 3.84; in assay [20] it was 4.14; in [21] it was “below the threshold”; in [22], 4.05; in assay [23], “below the threshold”; in assay [24], 4.24.
QLKSGRDSTV [TMEM178A, Q8NBL3]: the negative logarithm of the Kd (pKd) in [1] is 4.11; in assay [2] it was 3.56; in assay [3], 4.4; in [4], 3.82; in assay [5], 3.52; in assay [6] it was “below the threshold”. Also, the pKd in [7] is 3.62; in assay [8] it was 3.58; in [9], “below the threshold”; in [10] it was 4.02; in assay [11], 3.91; in [12], 3.74. For the same molecule, the negative logarithm of the Kd (pKd) in assay [13] was 4.4; in [14], “below the threshold”; in [15], “below the threshold”; in assay [16], 3.63; in [17], “below the threshold”; in assay [18], 4.35. Moreover, the pKd result was “below the threshold” in [19]; 3.85 in assay [20]; 3.55 in [21]; “below the threshold” in assay [22]; “below the threshold” in assay [23]; “below the threshold” in [24].
DLLGGGSDSI [TNRC6B, Q9UPQ9]: the negative logarithm of the Kd (pKd) in [1] was 3.65; in assay [2] it was “below the threshold”; in assay [3] it was “below the threshold”; in [4], “below the threshold”; in assay [5] it was 3.9; in [6] it was “below the threshold”. The pKd result is “below the threshold” in assay [7]; “below the threshold” in assay [8]; “below the threshold” in [9]; 3.85 in assay [10]; “below the threshold” in assay [11]; “below the threshold” in [12]. Moreover, the pKd entry in assay [13], in [14], in [15], in assay [16], in assay [17] and in assay [18] was “below the threshold” in each case. Moreover, the negative logarithm of the Kd (pKd) is 3.53 in assay [19]; “below the threshold” in assay [20]; “below the threshold” in assay [21]; 4.01 in [22]; 3.62 in assay [23]; 3.62 in assay [24].

As a reminder, the pKd is the negative decadic logarithm of the Kd, by convention in mol/L.

The values above are taken from paper PMC9482650, “Quantitative fragmentomics allow affinity mapping of interactomes” (Nature Communications, 2022).
